The experiment deals with T1, LolB-Strep (E. coli, UniProt P61320 22-207).
T1 sequence (looked up): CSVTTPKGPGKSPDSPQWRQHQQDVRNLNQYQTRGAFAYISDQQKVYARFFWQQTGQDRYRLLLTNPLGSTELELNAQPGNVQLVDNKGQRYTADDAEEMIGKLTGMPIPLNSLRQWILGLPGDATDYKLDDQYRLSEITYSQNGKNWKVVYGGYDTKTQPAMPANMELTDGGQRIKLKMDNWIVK
As to the kind of experiment: pull-down.

B1: wild-type RcsF (natural protein, E. coli, UniProt P69411 16-134, looked up)
chain: CSMLSRSPVEPVQSTAPQPKAEPAKPKAPRATPVRIYTNAEELVGKPFRDLGEVSGDSCQASNQDSPPSIPTARKRMQINASKMKANAVLLHSCEVTSGTPGCYRQAVCIGSALNITAK
modifications: acylated (lipidated) N-terminal cysteine, the first residue of the mature lipoprotein
With B1, the binding result is reported as “binds”.

The values above are taken from doi:10.1101/2021.01.05.425367 (bioRxiv, 2021).
